Results published in patent publication US20220332804A1 (CSL INNOVATION, published 2022).

Legend:
[1] = target: T1, human complement C2 (human, UniProt P06681 21-752); test: SPR, mAb captured, huC2 analyte, pH 6
T1 construct: Recombinant full-length human C2 with C-terminal 8x His tag, purified from Expi293F supernatant; also called human C2; huC2
T1 sequence: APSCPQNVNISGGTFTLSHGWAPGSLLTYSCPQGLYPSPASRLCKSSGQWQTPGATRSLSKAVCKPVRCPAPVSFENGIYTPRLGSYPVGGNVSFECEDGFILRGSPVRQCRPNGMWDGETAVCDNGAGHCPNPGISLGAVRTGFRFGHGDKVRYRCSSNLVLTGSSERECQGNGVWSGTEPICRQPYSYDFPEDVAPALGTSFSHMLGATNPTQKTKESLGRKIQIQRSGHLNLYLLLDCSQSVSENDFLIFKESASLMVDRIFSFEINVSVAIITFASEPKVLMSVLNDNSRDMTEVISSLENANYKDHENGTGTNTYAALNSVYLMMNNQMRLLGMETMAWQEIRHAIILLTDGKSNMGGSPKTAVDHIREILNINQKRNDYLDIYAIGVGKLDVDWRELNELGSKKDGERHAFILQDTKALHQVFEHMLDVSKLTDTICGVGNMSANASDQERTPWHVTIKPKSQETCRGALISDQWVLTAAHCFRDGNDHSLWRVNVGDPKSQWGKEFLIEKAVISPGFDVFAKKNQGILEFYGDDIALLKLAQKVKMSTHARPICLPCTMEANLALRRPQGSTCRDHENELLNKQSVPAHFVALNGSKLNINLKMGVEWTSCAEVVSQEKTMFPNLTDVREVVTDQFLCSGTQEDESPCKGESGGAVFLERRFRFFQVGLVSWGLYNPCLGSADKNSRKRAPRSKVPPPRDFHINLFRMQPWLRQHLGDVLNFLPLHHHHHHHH

[2] = target: T1, human complement C2; test: SPR, mAb captured, huC2 analyte, neutral pH; pH 7
[3] = target: T2, human FcRn/β2m (human, UniProt P55899 24-297; P61769 21-119); test: SPR, antibody immobilised, FcRn/β2m analyte, pH 6.0; pH 6.0
T2 construct: Soluble FcRn/β2m injected as analyte over immobilised antibody; also called neonatal Fc receptor
Experimental: Anti-C2 mAbs (1 μg/mL at pH 5) were immobilized on a carboxylmethyldextran (CM5) sensorchip surface using standard EDC/NHS chemistry. Human and Cyno FcRn/β2m (40 μM) were prepared in running buffer (10 mM HEPES, 150 mM NaCl, 10 mM MES adjusted to either pH 6 or pH 7.3) and injected on the immobilized anti-C2 surface at concentrations ranging from 0.078 to 40 μM, prepared in two-fold dilutions in running buffer. Association and dissociation phases were monitored for 180 and 600 seconds, respectively. […] Double referenced sensorgrams were fitted to either a 1:1 kinetic model (pH 6), including a term for mass transport limitation or to a 1:1 steady state model (pH 7.3) where responses at the end of the association phase were plotted against respective concentrations.
Binding to both human and cynomolgus monkey FcRn was tested using the SPR methods described above.

[4] = target: T1, human complement C2; test: cell-based or functional assay
[5] = target: T3, cynomolgus monkey C2 (cynomolgus monkey, UniProt G8F3W0 21-752); test: cell-based or functional assay
T3 sequence: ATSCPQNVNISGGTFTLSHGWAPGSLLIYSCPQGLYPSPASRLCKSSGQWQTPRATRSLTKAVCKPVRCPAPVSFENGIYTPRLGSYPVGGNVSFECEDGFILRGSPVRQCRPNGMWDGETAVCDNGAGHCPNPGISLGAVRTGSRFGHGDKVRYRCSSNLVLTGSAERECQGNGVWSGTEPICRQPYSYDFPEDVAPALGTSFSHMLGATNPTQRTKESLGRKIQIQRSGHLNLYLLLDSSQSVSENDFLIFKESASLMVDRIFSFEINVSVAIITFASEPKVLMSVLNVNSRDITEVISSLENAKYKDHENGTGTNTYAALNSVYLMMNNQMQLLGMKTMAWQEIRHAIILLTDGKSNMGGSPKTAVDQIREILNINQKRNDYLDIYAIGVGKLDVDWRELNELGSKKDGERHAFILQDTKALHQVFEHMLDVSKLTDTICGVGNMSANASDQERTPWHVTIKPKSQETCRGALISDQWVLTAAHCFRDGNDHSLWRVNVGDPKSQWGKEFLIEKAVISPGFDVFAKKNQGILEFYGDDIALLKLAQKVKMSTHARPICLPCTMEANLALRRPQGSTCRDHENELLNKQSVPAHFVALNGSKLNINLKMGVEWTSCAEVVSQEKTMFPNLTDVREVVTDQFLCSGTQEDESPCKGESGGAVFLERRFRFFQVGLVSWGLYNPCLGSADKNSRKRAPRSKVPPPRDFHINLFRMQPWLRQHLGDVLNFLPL

[6] = target: T1, human complement C2; test: cell-based or functional assay; remark: listed apart in the source
[7] = target: T3, cynomolgus monkey C2; test: cell-based or functional assay; remark: listed apart in the source
[8] = target: T3, cynomolgus monkey C2; test: SPR, mAb captured, cyno C2 analyte, pH 6.0
Experimental: (§1) Surface plasmon resonance (SPR, Biacore) was used for all binding affinity analyses. In brief, goat anti-human IgG was directly immobilised onto the carboxymethyl dextran surface of CM5 sensorchips to approximately 12,000 RU using standard NHS/EDC chemistry at pH 5. The immobilised antibody surface was pre-conditioned with ten injections of polyclonal human IgG (Privigen 60 s) prepared at 1 μg/mL. Ligands (anti-C2 mAbs) were captured at the beginning of each cycle as described below. An adjacent spot or flow cell in which only Polyclonal IgG was capture was used as a reference surface. The goat anti-human IgG Fc antibody surface was regenerate in 100 mM H3PO4, injected for 45 seconds at the end of each cycle. Experiments were performed at 37° C. and the flow rate of each experiment was kept constant at 30 μL/min.
(§2) In addition to human C2, the pH dependent anti-C2 antibodies were also tested for their ability to bind to C2 from other mammalian species using the SPR methods described above in order to identify suitable surrogate species for in vivo testing. The antibodies were tested for binding at neutral pH against C2 from cynomolgus monkeys, mice, dogs, rabbits, rats, pigs, and sheep.

[9] = target: T3, cynomolgus monkey C2; test: SPR, mAb captured, cyno C2 analyte, pH 7.3
[10] = target: T4, mouse C2 (mouse, UniProt P21180 19-760, limits assumed); test: SPR, mAb captured, mouse C2 analyte, pH 7.3
T4 sequence (looked up): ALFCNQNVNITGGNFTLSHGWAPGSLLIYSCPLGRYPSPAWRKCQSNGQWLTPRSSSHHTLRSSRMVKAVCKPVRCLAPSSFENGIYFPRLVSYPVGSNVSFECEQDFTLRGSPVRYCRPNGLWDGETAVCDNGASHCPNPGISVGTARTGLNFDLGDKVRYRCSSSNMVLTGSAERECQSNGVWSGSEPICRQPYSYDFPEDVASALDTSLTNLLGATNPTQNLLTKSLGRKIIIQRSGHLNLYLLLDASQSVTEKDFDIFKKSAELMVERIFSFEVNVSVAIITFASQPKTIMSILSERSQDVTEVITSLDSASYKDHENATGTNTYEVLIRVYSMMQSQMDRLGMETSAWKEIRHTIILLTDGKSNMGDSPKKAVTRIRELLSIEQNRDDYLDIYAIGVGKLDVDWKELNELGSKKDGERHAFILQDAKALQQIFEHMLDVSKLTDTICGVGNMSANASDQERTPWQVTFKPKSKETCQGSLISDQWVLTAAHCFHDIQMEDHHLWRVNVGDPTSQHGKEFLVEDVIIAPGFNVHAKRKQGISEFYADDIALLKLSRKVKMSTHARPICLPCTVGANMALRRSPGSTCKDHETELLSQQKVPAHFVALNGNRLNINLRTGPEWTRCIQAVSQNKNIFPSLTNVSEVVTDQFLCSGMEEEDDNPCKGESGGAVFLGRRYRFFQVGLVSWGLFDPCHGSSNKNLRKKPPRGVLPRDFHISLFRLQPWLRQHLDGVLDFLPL
Experimental: as §1, §2

[11] = target: T1, human complement C2; test: SPR, mAb captured, C2 analyte, HBS-EP, pH 6.0
Experimental: as §1
(§3) The pH dependent anti-C2 antibodies and their germlined versions were tested for their affinity to C2 at pH 7.3 (neutral pH) and pH 6.0 (early endosome pH) using the SPR methods described above in HBS-EP buffer.

[12] = target: T1, human complement C2; test: SPR, mAb captured, C2 analyte, HBS-EP, pH 7.3
Experimental: as §1, §3

T2 sequence (P55899 24-297 limits assumed, chain 1 of 2): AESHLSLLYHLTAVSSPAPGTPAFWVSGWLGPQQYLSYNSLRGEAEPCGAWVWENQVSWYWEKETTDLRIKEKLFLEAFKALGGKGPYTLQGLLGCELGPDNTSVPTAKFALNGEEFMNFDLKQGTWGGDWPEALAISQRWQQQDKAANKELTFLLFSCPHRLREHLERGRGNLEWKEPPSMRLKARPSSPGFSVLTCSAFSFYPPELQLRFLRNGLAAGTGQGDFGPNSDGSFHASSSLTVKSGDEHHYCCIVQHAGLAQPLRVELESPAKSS
T2 sequence (P61769 21-119 limits assumed, chain 2 of 2): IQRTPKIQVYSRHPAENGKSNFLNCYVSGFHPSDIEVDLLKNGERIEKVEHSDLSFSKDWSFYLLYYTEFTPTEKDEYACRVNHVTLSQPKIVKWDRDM

B1: RF16-226 YEY (antibody, human IgG4 S228P, lambda)
heavy: EVQLVQSGAEVKKPGESLKISCKGSGYSFTSYWIGWVRQMPGKGLEWMGIIYPGDSDTRYSPSFQGQVTISADKSISTAYLQWSSLKASDTAMYYCARRFSYSSGWDMWGQGTLVTVSSASTKGPSVFPLAPCSRSTSESTAALGCLVKDYFPEPVTVSWNSGALTSGVHTFPAVLQSSGLYSLSSVVTVPSSSLGTKTYTCNVDHKPSNTKVDKRVESKYGPPCPPCPAPEFLGGPSVFLFPPKPKDTLYISRTPEVTCVVVDVSQEDPEVQFNWYVDGVEVHEAKTKPREEQFNSTYRVVSVLTVLHQDWLNGKEYKCKVSNKGLPSSIEKTISKAKGQPREPQVYTLPPSQEEMTKNQVSLTCLVKGFYPSDIAVEWESNGQPENNYKTTPPVLDSDGSFFLYSRLTVDKSRWQEGNVFSCSVMHEALHYHYTQKSLSLSLGK
light: SYELTQPPSVSVSPGQTARITCSGDALTSKYVAWYQQKSGLAPLLVIYEDTRRPSGIPAKFSGSSSGSVATLTISGAHGDDEADYYCYSTDASGHQRVFGGGTKLTVLSQPKAAPSVTLFPPSSEELQANKATLVCLISDFYPGAVTVAWKADGSPVKAGVETTKPSKQSNNKYAASSYLSLTPEQWKSHRSYSCQVTHEGSTVEKTVAPTECS
Which results are given for B1?
Kd [1]: ~80 nM; Kd [2]: ~9 nM

B2: RF16-226 YPY (antibody, human IgG4 S228P, lambda)
heavy: EVQLVQSGAEVKKPGESLKISCKGSGYSFTSYWIGWVRQMPGKGLEWMGIIYPGDSDTRYSPSFQGQVTISADKSISTAYLQWSSLKASDTAMYYCARRFSYSSGWDMWGQGTLVTVSSASTKGPSVFPLAPCSRSTSESTAALGCLVKDYFPEPVTVSWNSGALTSGVHTFPAVLQSSGLYSLSSVVTVPSSSLGTKTYTCNVDHKPSNTKVDKRVESKYGPPCPPCPAPEFLGGPSVFLFPPKPKDTLYISRTPEVTCVVVDVSQEDPEVQFNWYVDGVEVHNAKTKPREEQFNSTYRVVSVLTPLHQDWLNGKEYKCKVSNKGLPSSIEKTISKAKGQPREPQVYTLPPSQEEMTKNQVSLTCLVKGFYPSDIAVEWESNGQPENNYKTTPPVLDSDGSFFLYSRLTVDKSRWQEGNVFSCSVMHEALHYHYTQKSLSLSLGK
light: SYELTQPPSVSVSPGQTARITCSGDALTSKYVAWYQQKSGLAPLLVIYEDTRRPSGIPAKFSGSSSGSVATLTISGAHGDDEADYYCYSTDASGHQRVFGGGTKLTVLSQPKAAPSVTLFPPSSEELQANKATLVCLISDFYPGAVTVAWKADGSPVKAGVETTKPSKQSNNKYAASSYLSLTPEQWKSHRSYSCQVTHEGSTVEKTVAPTECS
Which Kd [1] does the source give for B2 here?
The Kd was roughly 80 nM.

And the Kd [2]?
The Kd was roughly 9 nM.

B3: RF16-226 M252Y, S254T, T256E (antibody, human IgG4 S228P, lambda)
heavy: EVQLVQSGAEVKKPGESLKISCKGSGYSFTSYWIGWVRQMPGKGLEWMGIIYPGDSDTRYSPSFQGQVTISADKSISTAYLQWSSLKASDTAMYYCARRFSYSSGWDMWGQGTLVTVSSASTKGPSVFPLAPCSRSTSESTAALGCLVKDYFPEPVTVSWNSGALTSGVHTFPAVLQSSGLYSLSSVVTVPSSSLGTKTYTCNVDHKPSNTKVDKRVESKYGPPCPPCPAPEFLGGPSVFLFPPKPKDTLYITREPEVTCVVVDVSQEDPEVQFNWYVDGVEVHNAKTKPREEQFNSTYRVVSVLTVLHQDWLNGKEYKCKVSNKGLPSSIEKTISKAKGQPREPQVYTLPPSQEEMTKNQVSLTCLVKGFYPSDIAVEWESNGQPENNYKTTPPVLDSDGSFFLYSRLTVDKSRWQEGNVFSCSVMHEALHNHYTQKSLSLSLGK
light: SYELTQPPSVSVSPGQTARITCSGDALTSKYVAWYQQKSGLAPLLVIYEDTRRPSGIPAKFSGSSSGSVATLTISGAHGDDEADYYCYSTDASGHQRVFGGGTKLTVLSQPKAAPSVTLFPPSSEELQANKATLVCLISDFYPGAVTVAWKADGSPVKAGVETTKPSKQSNNKYAASSYLSLTPEQWKSHRSYSCQVTHEGSTVEKTVAPTECS
With B3 as the binder, how does the Kd [3] read?
The Kd was 680 nM.

B4: RF16-226 YTE (antibody, human IgG4 S228P, lambda)
heavy: EVQLVQSGAEVKKPGESLKISCKGSGYSFTSYWIGWVRQMPGKGLEWMGIIYPGDSDTRYSPSFQGQVTISADKSISTAYLQWSSLKASDTAMYYCARRFSYSSGWDMWGQGTLVTVSSASTKGPSVFPLAPCSRSTSESTAALGCLVKDYFPEPVTVSWNSGALTSGVHTFPAVLQSSGLYSLSSVVTVPSSSLGTKTYTCNVDHKPSNTKVDKRVESKYGPPCPPCPAPEFLGGPSVFLFPPKPKDTLYITREPEVTCVVVDVSQEDPEVQFNWYVDGVEVHNAKTKPREEQFNSTYRVVSVLTVLHQDWLNGKEYKCKVSNKGLPSSIEKTISKAKGQPREPQVYTLPPSQEEMTKNQVSLTCLVKGFYPSDIAVEWESNGQPENNYKTTPPVLDSDGSFFLYSRLTVDKSRWQEGNVFSCSVMHEALHNHYTQKSLSLSLGK
light: SYELTQPPSVSVSPGQTARITCSGDALTSKYVAWYQQKSGLAPLLVIYEDTRRPSGIPAKFSGSSSGSVATLTISGAHGDDEADYYCYSTDASGHQRVFGGGTKLTVLSQPKAAPSVTLFPPSSEELQANKATLVCLISDFYPGAVTVAWKADGSPVKAGVETTKPSKQSNNKYAASSYLSLTPEQWKSHRSYSCQVTHEGSTVEKTVAPTECS
Which results are given for B4?
Kd [1]: ~80 nM; Kd [2]: ~9 nM

B5: RF16-191 (antibody, V domains shown)
VH: EVQLLESGGGLVQPGGSLRLSCAASGFTFSKYWMGWVRQATGKGLEWVSSIYSSGGWTYYADSVKGRFTISRDNSKNTLYLQMNSLRAEDTAVYYCARRPRSFSGSYYRAFDIWGQGTMVTVSS
VL: DIQMTQSPSSLSASVGDRVTITCRASQSITDYLNWYQQRPGKAPKLLIYAASSLQSGVPSRFSGSGSGTDFTLTISGLQPEDFATYYCQQSYSSSITFGQGTRLDLKR
notes: Human antibody from a phage display library
B5 was tested. Which “IC50, inhibition of human classical complement pathway (Wieslab assay)” value [4] did it give?
The value was 1.09 nM.

And the “IC50, inhibition of human lectin complement pathway (Wieslab assay)” value [4]?
Its value is 0.857 nM.

What about the “IC50, inhibition of cynomolgus classical complement pathway (Wieslab assay)” value [5] of the same binder?
The value was 11 nM.

And the “IC50, inhibition of cynomolgus lectin complement pathway (Wieslab assay)” value [5]?
Its value is 49.2 nM.

And the “IC50, inhibition of human classical pathway (hemolysis assay)” value [6]?
The value was 29.4 nM.

And the “IC50, inhibition of cyno classical pathway (hemolysis assay)” value [7]?
Its value is 188 nM.

And the Kd [8]?
Its Kd is 71.3 nM.

What about the Kd [9] of the same binder?
Its Kd is 27.4 nM.

What about the Kd [10] of the same binder?
Its Kd is 303 nM.

What about the Kd [11] of the same binder?
The Kd was 13 nM.

And the Kd [12]?
Its Kd is 10.9 nM.
